Experimental data as given in PMC12213002.

Experiments:
[1] = endogenous DDX3X western blot, HEK293T
[2] = cycloheximide chase, FLAG western blot, HEK293T; details: glycan lost; control: FLAG-DDX3X WT
[3] = MG132 rescue of FLAG-DDX3X levels, P2A-GFP normalised; details: glycan lost; control: FLAG-DDX3X WT
[4] = FLAG western blot, transfected HEK293T, normalised to β-tubulin; details: glycan lost; control: FLAG-DDX3X WT
[5] = total DDX3X western blot, siRNA knock-down/rescue; details: glycan lost; control: siDDX3X + SIR FLAG-DDX3X WT

B1: DDX3X: OGT siRNA (protein)
parent chain: MSHVAVENALGLDQQFAGLDLNSSDNQSGGSTASKGRYIPPHLRNREATKGFYDKDSSGWSSSKDKDAYSSFGSRSDSRGKSSFFSDRGSGSRGRFDDRGRSDYDGIGSRGDRSGFGKFERGGNSRWCDKSDEDDWSKPLPPSERLEQELFSGGNTGINFEKYDDIPVEATGNNCPPHIESFSDVEMGEIIMGNIELTRYTRPTPVQKHAIPIIKEKRDLMACAQTGSGKTAAFLLPILSQIYSDGPGEALRAMKENGRYGRRKQYPISLVLAPTRELAVQIYEEARKFSYRSRVRPCVVYGGADIGQQIRDLERGCHLLVATPGRLVDMMERGKIGLDFCKYLVLDEADRMLDMGFEPQIRRIVEQDTMPPKGVRHTMMFSATFPKEIQMLARDFLDEYIFLAVGRVGSTSENITQKVVWVEESDKRSFLLDLLNATGKDSLTLVFVETKKGADSLEDFLYHEGYACTSIHGDRSQRDREEALHQFRSGKSPILVATAVAARGLDISNVKHVINFDLPSDIEEYVHRIGRTGRVGNLGLATSFFNERNINITKDLLDLLVEAKQEVPSWLENMAYEHHYKGSSRGRSKSSRFSGGFGARDYRQSSGASSSSFSSSRASSSRSGGGGHGSSRGFGGGGYGGFYNSDGYGGNYNSQGVDWWGN
With B1 the expression_or_secretion ([1]; glycan lost, control: siRNA against firefly luciferase) was “decreases”.

B2: DDX3X: Ser584Ala (protein)
parent chain: B1 parent chain
For B2, the “degradation_or_half_life, other: turnover rate” value [2] was “decreases”, the “degradation_or_half_life, other: proteasome-dependent loss of protein” value [3] was “decreases” and the “expression_or_secretion, percent_of_wt” value [4] was “decreases”.

B3: DDX3X: SIR FLAG-DDX3X Ser584Ala (protein)
parent chain: B1 parent chain
In the case of B3, the expression_or_secretion [5] is reported as “decreases”.

B4: DDX3X: FLAG-OGT WT over-expression (protein)
parent chain: B1 parent chain
With B4 the expression_or_secretion ([1]; glycan gained, control: FLAG-empty vector) was “increases”.
